Experimental data: publication doi:10.1101/563890 (bioRxiv, 2019)

Biological target: CXCL12 (UniProt P48061-2 22-89)
Test: MST

Chain of CXCL12 (P48061 22-89): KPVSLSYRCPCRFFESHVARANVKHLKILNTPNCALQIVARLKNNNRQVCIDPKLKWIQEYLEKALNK

Kd: 4 ± 0.4 µM
B1: 6His-tagged full-length HMGB1 (residues 1-214), labelled with NT647 (natural protein, UniProt P63159 1-215, looked up)
chain: MGKGDPKKPRGKMSSYAFFVQTCREEHKKKHPDASVNFSEFSKKCSERWKTMSAKEKGKFEDMAKADKARYEREMKTYIPPKGETKKKFKDPNAPKRPPSAFFLFCSEYRPKIKGEHPGLSIGDVAKKLGEMWNNTAADDKQPYEKKAAKLKEKYEKDIAAYRAKGKPDAAKKGVVKAEKSKKKKEEEDDEEDEEDEEEEEEEEDEDEEEDDDDE
modifications: non-covalently labelled with the NT647 fluorescence dye
